Test [1] deals with T1, recombinant human MOG protein (human, UniProt Q16653 30-154, limits assumed).
T1 construct: Bought recombinant protein; also called HMOG
T1 sequence (looked up): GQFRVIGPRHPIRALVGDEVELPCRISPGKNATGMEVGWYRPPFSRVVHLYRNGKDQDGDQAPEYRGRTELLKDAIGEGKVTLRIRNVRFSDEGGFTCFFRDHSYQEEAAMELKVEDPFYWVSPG
Put plainly: phage-scFv ELISA on coated recombinant human MOG (0.5 µg/well), anti-M13 HRP, OD450 over BSA background. As to the method: (§1) The binding characteristics of the scFvs expressed on the surface of the phages isolated during the screening were determined using an ELISA assay using the recombinant MOG protein (R&D system). Along with the selected clones, phage-scFv-8-18C5 is expressed to serve as a positive control for ELISA. Briefly, phage-scFv were produced in the form of clones isolated on a 96-well plate in 800 μl of 2YT/ampicillin/glucose cultures infected with the helper phage M13K07 (as described previously). The phages produced overnight at 26° C. were then recovered in the supernatants after 30 minutes of centrifugation at 3000 g. These supernatants were directly diluted 1/2 in PBS/4% BSA/0.1% Tween 20 and tested on Maxisorp immunoplates previously coated with 0.5 μg of human or murine MOG or PBS (background control (bdf) in BSA)/well and blocked with 4% BSA in PBS. After incubation for 2 hours at 37° C., the wells were washed 3 times with PBS/0.1% Tween-20 and bound phages-scfv were detected with anti-M13 HRP antibody (GE Healthcare). The plate is read at 450 nm (OD) on a plate reader (TECAN). The results are expressed as a ratio: OD on target/OD bdf (OD on an uncoated plate saturated with BSA) and the ratios are compared with that obtained for the positive control.

The target of test [2] is T2, recombinant murine MOG protein (murine, UniProt Q61885 29-156, limits assumed).
T2 construct: Bought recombinant protein; also called MMOG
T2 sequence (looked up): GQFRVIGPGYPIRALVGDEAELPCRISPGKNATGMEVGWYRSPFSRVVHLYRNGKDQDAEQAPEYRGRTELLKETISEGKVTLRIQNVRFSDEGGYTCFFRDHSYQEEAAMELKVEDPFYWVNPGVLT
Put plainly: phage-scFv ELISA on coated recombinant murine MOG (0.5 µg/well), anti-M13 HRP, OD450 over BSA background. The procedure: as §1

A further test deals with T3, murine FcγRIII (murine, UniProt P08508 31-215).
T3 sequence (looked up): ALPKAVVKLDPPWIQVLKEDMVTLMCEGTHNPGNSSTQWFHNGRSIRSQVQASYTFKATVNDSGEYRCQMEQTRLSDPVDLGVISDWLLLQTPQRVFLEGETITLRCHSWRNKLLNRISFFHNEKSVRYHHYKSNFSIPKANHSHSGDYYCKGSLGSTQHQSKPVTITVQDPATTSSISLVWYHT
Put plainly: ELISA, IgG aggregated with anti-IgG F(ab')2-HRP on coated FcγR. The procedure: (§2) The binding of the 8-18C5-WT and 8-18C5-Del antibodies to human or murine FcγRs was measured by ELISA after incubation, with the F(ab′)2 of goat anti-human IgG HRP for 2 h at room temperature (at a final concentration of 0.5 μg/ml for each molecule) with gentle stirring. The IgGs aggregated to the F(ab′)2 were then incubated with gentle agitation for 1 h at 30° C. on the Maxisorp or NiNTA immunoplates previously coated with the FcγR and saturated with PBS-BSA 4%.

In a further test the target is T4, murine FcγRIIB (murine, UniProt P08101 30-207, limits assumed).
T4 sequence (looked up): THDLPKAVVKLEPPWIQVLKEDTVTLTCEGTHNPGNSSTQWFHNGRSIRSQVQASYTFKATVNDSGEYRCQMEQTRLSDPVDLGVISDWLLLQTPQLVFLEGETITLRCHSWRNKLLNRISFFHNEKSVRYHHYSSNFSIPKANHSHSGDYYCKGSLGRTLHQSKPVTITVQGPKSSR
The test is described as above. As to the method: as §2

The target in the next test is T5, murine FcγRI (murine, UniProt P26151 25-297).
T5 construct: also called FcγRIA; CD64
T5 sequence (looked up): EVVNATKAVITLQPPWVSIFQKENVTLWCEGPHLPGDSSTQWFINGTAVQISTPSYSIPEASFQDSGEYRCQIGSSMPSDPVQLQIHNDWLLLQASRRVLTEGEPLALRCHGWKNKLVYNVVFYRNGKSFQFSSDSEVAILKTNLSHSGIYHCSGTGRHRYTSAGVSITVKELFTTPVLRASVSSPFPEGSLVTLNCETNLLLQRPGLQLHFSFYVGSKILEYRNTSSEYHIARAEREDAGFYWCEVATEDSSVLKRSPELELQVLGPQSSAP
Described as above. As to the method: as §2

In another test the target is T6, murine FcγRIV (murine, UniProt A0A0B4J1G0 21-203).
T6 sequence: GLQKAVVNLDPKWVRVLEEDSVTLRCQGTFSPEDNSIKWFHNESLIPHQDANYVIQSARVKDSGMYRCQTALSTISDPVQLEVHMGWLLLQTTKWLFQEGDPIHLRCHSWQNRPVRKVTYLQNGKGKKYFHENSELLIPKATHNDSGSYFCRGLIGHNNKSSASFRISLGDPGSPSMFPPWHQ
The test is described as above. As to the method: as §2

B1: anti-MOG MO3I-34 antibody (scFv, V domains shown)
VH: EVQLVQSGAEVKKPGASVKVSCKASGYTFTSYGISWVRQAPGQGLEWMGWISAYNGNTNYAQKLQGRVTMTTDTSTSTAYMELRSLRSDDTAVYYCARNMGCSSTSCFVSWFDPWGQGTLVTVSS
VL: QSVLTQPPSVSAAPGQKVTISCSGSRSNIGSNYVSWYQQLPGTAPKLLIYDNTRRPSGIPDRFYGSKSGTSATLDITGLQTGDEADYHCATWDSSLSALLFGGGTKVTVL
In the case of B1, the “ratio OD on target/OD bdf” value in test [1] turned out to be 2.14 ratio; in test [2], 2.45 ratio.

B2: recombinant murine monoclonal antibody 8-18C5 (8-18C5-WT) (antibody, mouse IgG1, kappa)
heavy: EVKLHESGAGLVKPGASVEISCKATGYTFSSFWIEWVKQRPGHGLEWIGEILPGRGRTNYNEKFKGKATFTAETSSNTAYMQLSSLTSEDSAVYYCATGNTMVNMPYWGQGTTVTVSSAKTTPPSVYPLAPGSAAQTNSMVTLGCLVKGYFPEPVTVTWNSGSLSSGVHTFPAVLESDLYTLSSSVTVPSSPRPSETVTCNVAHPASSTKVDKKIVPRDCGCKPCICTVPEVSSVFIFPPKPKDVLTITLTPKVTCVVVDISKDDPEVQFSWFVDDVEVHTAQTQPREEQFNSTFRSVSELPIMHQDWLNGKEFKCRVNSAAFPAPIEKTISKTKGRPKAPQVYTIPPPKEQMAKDKVSLTCMITDFFPEDITVEWQWNGQPAENYKNTQPIMNTNGSYFVYSKLNVQKSNWEAGNTFTCSVLHEGLHNHHTEKSLSHSPGK
light: DIELTQSPSSLAVSAGEKVTMSCKSSQSLLNSGNQKNYLAWYQQKPGLPPKLLIYGASTRESGVPDRFTGSGSGTDFTLTISSVQAEDLAVYYCQNDHSYPLTFGAGTKLEIKRADAAPTVSIFPPSSEQLTSGGASVVCFLNNFYPKDINVKWKIDGSERQNGVLNSWTDQDSKDSTYSMSSTLTLTKDEYERHNSYTCEATHKTSTSPIVKSFNRNEC
notes: Murine IgG1 (consensus IGHG1*01 constant domain) produced in HEK or YB2/0 cells; also called mAb 8-18C5; YB2
As for B2, the binding result is listed as “binds” with murine FcγRIII, “binds” with murine FcγRIIB, “no binding (tested: 0.5 µg/ml)” in the test with murine FcγRI and “no binding (tested: 0.5 µg/ml)” with murine FcγRIV.

B3: 8-18C5-Del variant of the recombinant murine antibody 8-18C5 (antibody, mouse IgG1, kappa)
heavy: EVKLHESGAGLVKPGASVEISCKATGYTFSSFWIEWVKQRPGHGLEWIGEILPGRGRTNYNEKFKGKATFTAETSSNTAYMQLSSLTSEDSAVYYCATGNTMVNMPYWGQGTTVTVSSAKTTPPSVYPLAPGSAAQTNSMVTLGCLVKGYFPEPVTVTWNSGSLSSGVHTFPAVLESDLYTLSSSVTVPSSPRPSETVTCNVAHPASSTKVDKKIVPRDCGCKPCICTVPEVSSVFIFPPKPKDVLTITLTPKVTCVVVDISKDDPEVQFSWFVDDVEVHTAQTQPREQFNSTFRSVSELPIMHQDWLNGKEFKCRVNSAAFPAPIEKTISKTKGRPKAPQVYTIPPPKEQMAKDKVSLTCMITDFFPEDITVEWQWNGQPAENYKNTQPIMNTNGSYFVYSKLNVQKSNWEAGNTFTCSVLHEGLHNHHTEKSLSHSPGK
light: DIELTQSPSSLAVSAGEKVTMSCKSSQSLLNSGNQKNYLAWYQQKPGLPPKLLIYGASTRESGVPDRFTGSGSGTDFTLTISSVQAEDLAVYYCQNDHSYPLTFGAGTKLEIKRADAAPTVSIFPPSSEQLTSGGASVVCFLNNFYPKDINVKWKIDGSERQNGVLNSWTDQDSKDSTYSMSSTLTLTKDEYERHNSYTCEATHKTSTSPIVKSFNRNEC
modifications: Fc N-glycan highly sialylated (antibody produced in YB2/0 cells); the letters do not carry it.
notes: Murine IgG1, produced in YB2/0 cells; also called m8-18C5-Del
B3: the binding result in the test with murine FcγRIII, in the test with murine FcγRIIB, in the test with murine FcγRI and with murine FcγRIV was “no binding (tested: 0.5 µg/ml)” throughout.
